# In paper PMC2592534:
# What was measured:
# Experiment in all cases: SPR
# rat ficolin-A M57E (rat) = target: rat ficolin-A M57E (rat)
# rat ficolin-A M57S (rat) = target: rat ficolin-A M57S (rat)
# rat ficolin-A O54A (rat) = rat ficolin-A O54A (rat) (UniProt Q9WTS8)
# rat ficolin-A P59A (rat) = rat ficolin-A P59A (rat) (UniProt Q9WTS8)
# Sequence of rat ficolin-A P59A (rat) (Q9WTS8 18-335 P76A): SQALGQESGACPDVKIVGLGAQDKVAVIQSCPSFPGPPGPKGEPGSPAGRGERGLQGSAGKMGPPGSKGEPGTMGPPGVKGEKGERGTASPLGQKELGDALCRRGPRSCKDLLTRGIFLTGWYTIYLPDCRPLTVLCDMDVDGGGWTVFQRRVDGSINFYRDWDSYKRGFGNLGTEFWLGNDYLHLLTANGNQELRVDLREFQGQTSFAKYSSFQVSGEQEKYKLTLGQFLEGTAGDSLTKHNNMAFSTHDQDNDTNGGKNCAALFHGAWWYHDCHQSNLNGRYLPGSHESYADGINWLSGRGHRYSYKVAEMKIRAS
# Sequence of rat MASP-2A (catalytically inactive MBL-associated serine protease-2, Ser613 to Ala) (Q9JJS8 20-685 S632A): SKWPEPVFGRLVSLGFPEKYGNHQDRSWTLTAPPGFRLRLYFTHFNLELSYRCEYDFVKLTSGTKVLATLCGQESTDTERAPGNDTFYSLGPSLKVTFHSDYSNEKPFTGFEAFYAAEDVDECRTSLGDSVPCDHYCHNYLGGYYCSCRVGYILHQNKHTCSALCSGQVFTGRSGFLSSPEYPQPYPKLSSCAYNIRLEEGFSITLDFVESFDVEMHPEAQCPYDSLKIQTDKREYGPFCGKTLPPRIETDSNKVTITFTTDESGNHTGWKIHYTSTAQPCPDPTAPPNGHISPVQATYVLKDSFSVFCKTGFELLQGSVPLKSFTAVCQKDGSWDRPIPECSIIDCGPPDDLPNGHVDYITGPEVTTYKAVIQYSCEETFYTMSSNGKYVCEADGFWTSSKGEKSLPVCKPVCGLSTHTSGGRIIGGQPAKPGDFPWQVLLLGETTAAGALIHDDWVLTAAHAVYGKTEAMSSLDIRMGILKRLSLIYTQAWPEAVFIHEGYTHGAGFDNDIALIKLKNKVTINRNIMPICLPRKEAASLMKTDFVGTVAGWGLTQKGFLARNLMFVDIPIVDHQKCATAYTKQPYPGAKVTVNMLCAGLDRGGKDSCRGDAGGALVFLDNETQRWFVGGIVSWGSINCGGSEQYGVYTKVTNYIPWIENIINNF
# Sequence of rat ficolin-A O54A (rat) (Q9WTS8 18-335 P54A): as the sequence (Q9WTS8 18-335 P76A) above, with P37A, A59P counted along it
substance,measurement,setting,value
"rat MASP-2A (catalytically inactive MBL-associated serine protease-2, Ser613 to Ala) (from UniProt Q9JJS8 20-685) (enzyme)","KD1 (apparent, two-complex, parallel reaction model)",rat ficolin-A M57E (rat),49 nM
same,"KD2 (apparent, two-complex, parallel reaction model)",rat ficolin-A M57E (rat),3.23 µM
same,"koff of complex 2 (two-complex, parallel reaction model)",rat ficolin-A M57E (rat),0.0094 s⁻¹
same,"KD1 (apparent, two-complex, parallel reaction model)",rat ficolin-A M57S (rat),11.6 nM
same,"KD2 (apparent, two-complex, parallel reaction model)",rat ficolin-A M57S (rat),133 nM
same,"koff of complex 2 (two-complex, parallel reaction model)",rat ficolin-A M57S (rat),0.0048 s⁻¹
same,"kon of complex 1 (two-complex, parallel reaction model)",rat ficolin-A M57S (rat),410000 M⁻¹ s⁻¹
same,"kon of complex 2 (two-complex, parallel reaction model)",rat ficolin-A M57S (rat),37000 M⁻¹ s⁻¹
same,"KD2 (apparent, two-complex, parallel reaction model)",rat ficolin-A O54A (rat),153 nM
same,"KD1 (apparent, two-complex, parallel reaction model)",rat ficolin-A P59A (rat),6.8 nM
same,"KD2 (apparent, two-complex, parallel reaction model)",rat ficolin-A P59A (rat),253 nM
same,"kon of complex 1 (two-complex, parallel reaction model)",rat ficolin-A P59A (rat),1.13e+06 M⁻¹ s⁻¹
same,"kon of complex 2 (two-complex, parallel reaction model)",rat ficolin-A P59A (rat),42000 M⁻¹ s⁻¹
